# Source: IntAct's records for PubMed 17053789
# B1: Protection of telomeres protein 1 (Mus musculus), Q91WC1 (parent)
# chain: MSLVSTAPYTYTPLNLLKEGTIANVYGVVKFFKPPYVSKGTDYCSVVTIVDQTNVKLTCMLFSGNYEALPIIYKVGDIVRFHRLKIQVYKNELQGINCSGFASLTFEGTVGMPVTARTSSKVFSFTPQDQKMVEALRVWASKHISASSTLVQLCDAQPMQYYDLTCQLLGKAQVDSTAFLLKVWDGTQTVLPSWRVSTQDLTFEGDLSHIERLQSLVVDILVYDNHVQVARSIEVGCFLRLYSLHTKLQPGNSETSSSESLRLEFHLHGGTSYGRGIRVLPDTSPCVDQLKKALEGANLPVTETSTGICQSENGDSSALSNSGSGAVSPYEEERCQQVSATILTNHQHLEKTPLCAILTQKAPQQYRVRAKLRSYLPRRLSQSVKLLCPKCHSVQEVPHGDSLDKILQDAATEAPDIKLKATSLYYSKVWTTEDQGGRQVAVHFVKNNGILPASSECLILIEGGRLCEVSKLSSKFHSVMPVRSGPESLELLTLSAPFLIQGKVHHYGCKQCSSLKPIQNLNSRFHKGPWTPSSVAEALGVVPLQYVFVMVFTLDDGTGVLEAYLKDSEHFFKIPASEVLTDDDLQRSLETIMDMICPPGIKVDAYPWLECLLKSYNVTIGTERRICYQIFDTTVAENVV
# partner: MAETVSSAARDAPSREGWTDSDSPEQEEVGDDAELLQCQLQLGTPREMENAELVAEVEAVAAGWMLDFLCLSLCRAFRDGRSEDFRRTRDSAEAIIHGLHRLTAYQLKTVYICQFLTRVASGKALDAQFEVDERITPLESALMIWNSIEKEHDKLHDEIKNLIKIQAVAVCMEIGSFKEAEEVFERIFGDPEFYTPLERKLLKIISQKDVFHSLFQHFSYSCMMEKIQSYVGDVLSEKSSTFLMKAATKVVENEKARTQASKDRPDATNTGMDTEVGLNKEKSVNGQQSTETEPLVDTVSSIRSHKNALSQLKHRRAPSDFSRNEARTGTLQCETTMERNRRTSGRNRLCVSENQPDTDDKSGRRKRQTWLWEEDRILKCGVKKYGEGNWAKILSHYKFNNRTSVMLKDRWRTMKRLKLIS
# Variants of: B1
# Settings: with terf1_mouse Terf1, P70371
row,Variant,effect of a mutation on the interaction
1,Y223A,disrupting interaction
